The values that follow come from patent EP4626929A2 (dated 2025).

For the experiment, the target named is BTLA on human primary B cells (human, UniProt Q7Z6A9 31-289). Description: cell-based or functional assay.

B1: BTLA agonist antibody M10825 (antibody, human IgG2, kappa)
heavy: QITLKESGPTLVKPTQTLTLTCTFSGFSLSTSGVGVGWIRQPPGKALEWLAQEFWTGDKRYSPSLKSRLTITKDTSKNQVVLTMTNMDPVDTATYYCTHKLGMNYFDYWGQGTLVTVSSASTKGPSVFPLAPCSRSTSESTAALGCLVKDYFPEPVTVSWNSGALTSGVHTFPAVLQSSGLYSLSSVVTVPSSNFGTQTYTCNVDHKPSNTKVDKTVERKCCVECPPCPAPPVAGPSVFLFPPKPKDTLMISRTPEVTCVVVDVSHEDPEVQFNWYVDGVEVHNAKTKPREEQFNSTFRVVSVLTVVHQDWLNGKEYKCKVSNKGLPAPIEKTISKTKGQPREPQVYTLPPSREEMTKNQVSLTCLVKGFYPSDIAVEWESNGQPENNYKTTPPMLDSDGSFFLYSKLTVDKSRWQQGNVFSCSVMHEALHNHYTQKSLSLSPG
light: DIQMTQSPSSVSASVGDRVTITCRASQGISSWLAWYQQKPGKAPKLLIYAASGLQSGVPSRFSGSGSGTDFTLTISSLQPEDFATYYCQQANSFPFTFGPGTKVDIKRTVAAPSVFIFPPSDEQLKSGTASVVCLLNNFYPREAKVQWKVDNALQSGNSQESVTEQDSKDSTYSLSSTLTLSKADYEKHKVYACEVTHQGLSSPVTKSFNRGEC
On to B1, for which the “IC50 of inhibition of human primary B cell proliferation” value came to 10.5 nM.
